Paper doi:10.1101/748145 (bioRxiv, 2019)

B1: LetB five-ring truncation mutant (rings 5 and 6 deleted), TM helix removed (domain or fragment)
chain: QDRGNTVTIDFMSADGIVPGRTPVRYQGVEVGTVQDISLSDDLRKIEVKVSIKSDMKDALREETQFWLVTPKASLAGVSGLDALVGGNYIGMMPGKGKEQDHFVALDTQPKYRLDNGDLMIHLQAPDLGSLNSGSLVYFRKIPVGKVYDYAINPNKQGVVIDVLIERRFTDLVKKGSRFWNVSGVDANVSISGAKVKLESLAALVNGAIAFDSPEESKPAEAEDTFGLYEDLAHSQRGVIIKLELPSGAGLTADSTPLMYQGLEVGQLTKLDLNPGGKVTGEMTVDPSVVTLLRENTRIELRNPKLSLSDANLSALLTGKTFELVPGDGEPRKEFVVVPGEKALLHEPDVLTLTLTAPESYGIDAGQPLILHGVQVGQVIDRKLTSKGVTFTVAIEPQHRELVKGDSKFVVNSRVDVKVGLDGVEFLGASASEWINGGIRILPGDKGEMKASYPLYANLEKALENSLSDLPTTITDSRYLDGLSIIVEAPEAGSLGIGTPVLFRGLEVGTVTGMTLGTLSDRVMIAMRISKRYQHLVRNNSVFWLASGYSLDFGLTGGVVKTGTFNQFIRGGIAFATPPGTPLAPKAQEGKHFLLQESEPKEWREWGTALPK
B2: LetB six-ring truncation mutant (ring 6 deleted), TM helix removed (domain or fragment)
chain: QDRGNTVTIDFMSADGIVPGRTPVRYQGVEVGTVQDISLSDDLRKIEVKVSIKSDMKDALREETQFWLVTPKASLAGVSGLDALVGGNYIGMMPGKGKEQDHFVALDTQPKYRLDNGDLMIHLQAPDLGSLNSGSLVYFRKIPVGKVYDYAINPNKQGVVIDVLIERRFTDLVKKGSRFWNVSGVDANVSISGAKVKLESLAALVNGAIAFDSPEESKPAEAEDTFGLYEDLAHSQRGVIIKLELPSGAGLTADSTPLMYQGLEVGQLTKLDLNPGGKVTGEMTVDPSVVTLLRENTRIELRNPKLSLSDANLSALLTGKTFELVPGDGEPRKEFVVVPGEKALLHEPDVLTLTLTAPESYGIDAGQPLILHGVQVGQVIDRKLTSKGVTFTVAIEPQHRELVKGDSKFVVNSRVDVKVGLDGVEFLGASASEWINGGIRILPGDKGEMKASYPLYANLEKALENSLSDLPTTTVSLSAETLPDVQAGSVVLYRKFEVGEVITVRPRANAFDIDLHIKPEYRNLLTSNSVFWAEGGAKVQLNGSGLTVQASPLSRALKGAISFDNLSGASASQRKGDKRILYASETAARAVTITDSRYLDGLSIIVEAPEAGSLGIGTPVLFRGLEVGTVTGMTLGTLSDRVMIAMRISKRYQHLVRNNSVFWLASGYSLDFGLTGGVVKTGTFNQFIRGGIAFATPPGTPLAPKAQEGKHFLLQESEPKEWREWGTALPK
B3: LetB four-ring truncation mutant (rings 2-4 deleted), TM helix removed (domain or fragment)
chain: QDRGNTVTIDFMSADGIVPGRTPVRYQGVEVGTVQDISLSDDLRKIEVKVSIKSDMKDALREETQFWLVTPKASLAGVSGLDALVGGNYIGMMPGKGKEQDHFVALDTQPKYRLDNGNLEKALENSLSDLPTTTVSLSAETLPDVQAGSVVLYRKFEVGEVITVRPRANAFDIDLHIKPEYRNLLTSNSVFWAEGGAKVQLNGSGLTVQASPLSRALKGAISFDNLSGASASQRKGDKRILYASETAARAVGGQITLHAFDAGKLAVGMPIRYLGIDIGQIQTLDLITARNEVQAKAVLYPEYVQTFARGGTRFSVVTPQISAAGVEHLDTILQPYINVEPGRGNPRRDFELQEATITDSRYLDGLSIIVEAPEAGSLGIGTPVLFRGLEVGTVTGMTLGTLSDRVMIAMRISKRYQHLVRNNSVFWLASGYSLDFGLTGGVVKTGTFNQFIRGGIAFATPPGTPLAPKAQEGKHFLLQESEPKEWREWGTALPK

Biological target: the molecule itself
Experiment: negative stain EM

Stoichiometry N, 6:
B1
B2
B3
